Experiment [1] has as its target T1, human HER3 on CHO-hHER3 cells (human, UniProt P21860 20-643).
T1 construct: CHO-S cells transfected with hHER3
The experiment is described as follows: flow cytometry, transfected CHO cells. The procedure:
(§1) CHO-hHER3 cells, CHO-mHER3 cells, CHO-fasHER3 cells or CHO-dHER3 cells were transferred to a 96-well plate at a density of 5×10⁴ cells/well respectively. The anti-HER3 antibodies were added to the 96-well plate, and incubated at 4° C. for 30 min.

In experiment [2] the target is T2, dog HER3 on CHO-dHER3 cells (dog, UniProt P21860 20-1342 (human entry)).
T2 construct: CHO-S cells transfected with dHER3
T2 chain: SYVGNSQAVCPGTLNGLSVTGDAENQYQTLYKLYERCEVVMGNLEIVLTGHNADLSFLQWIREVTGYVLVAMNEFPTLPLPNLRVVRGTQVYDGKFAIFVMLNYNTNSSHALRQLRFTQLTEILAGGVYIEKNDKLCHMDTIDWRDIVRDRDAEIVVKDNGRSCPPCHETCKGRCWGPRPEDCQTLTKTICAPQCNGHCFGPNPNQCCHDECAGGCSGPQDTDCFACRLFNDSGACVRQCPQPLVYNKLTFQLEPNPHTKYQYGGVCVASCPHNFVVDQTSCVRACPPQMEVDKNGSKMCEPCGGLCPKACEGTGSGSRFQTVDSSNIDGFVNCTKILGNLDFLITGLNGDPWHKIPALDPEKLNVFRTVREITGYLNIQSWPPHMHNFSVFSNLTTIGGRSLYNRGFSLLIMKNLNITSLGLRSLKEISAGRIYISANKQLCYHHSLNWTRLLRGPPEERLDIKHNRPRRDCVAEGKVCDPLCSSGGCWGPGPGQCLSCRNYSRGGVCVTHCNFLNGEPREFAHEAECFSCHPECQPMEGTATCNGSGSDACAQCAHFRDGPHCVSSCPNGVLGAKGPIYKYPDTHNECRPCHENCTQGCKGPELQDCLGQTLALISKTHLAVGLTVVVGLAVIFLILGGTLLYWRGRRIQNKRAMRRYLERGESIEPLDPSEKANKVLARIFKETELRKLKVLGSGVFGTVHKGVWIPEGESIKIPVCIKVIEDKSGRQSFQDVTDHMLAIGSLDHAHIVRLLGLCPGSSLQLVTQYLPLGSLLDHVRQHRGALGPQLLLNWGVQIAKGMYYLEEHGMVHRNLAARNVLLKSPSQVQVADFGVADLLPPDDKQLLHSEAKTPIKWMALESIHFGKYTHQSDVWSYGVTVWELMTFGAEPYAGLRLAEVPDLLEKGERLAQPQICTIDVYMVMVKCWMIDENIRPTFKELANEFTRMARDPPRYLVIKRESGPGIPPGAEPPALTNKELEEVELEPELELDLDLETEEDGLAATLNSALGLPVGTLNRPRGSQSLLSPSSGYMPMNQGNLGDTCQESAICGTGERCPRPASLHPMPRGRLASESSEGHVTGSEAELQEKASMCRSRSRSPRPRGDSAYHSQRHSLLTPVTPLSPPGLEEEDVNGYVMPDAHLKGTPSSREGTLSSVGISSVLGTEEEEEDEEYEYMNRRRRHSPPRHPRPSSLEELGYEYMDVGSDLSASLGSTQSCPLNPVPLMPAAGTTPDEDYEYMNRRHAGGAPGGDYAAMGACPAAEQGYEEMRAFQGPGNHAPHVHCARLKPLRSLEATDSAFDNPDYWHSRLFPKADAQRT
The experiment is described as follows: flow cytometry, transfected CHO cells. The procedure:
as §1

Experiment [3] addresses T3, mouse HER3 on CHO-mHER3 cells (mouse, UniProt Q61526 20-641).
T3 construct: CHO-S cells transfected with mHER3
The experiment is described as follows: flow cytometry, transfected CHO cells. The protocol:
as §1

Experiment [4] addresses T4, monkey (Macaca fascicularis) HER3 on CHO-fasHER3 cells (monkey (Macaca fascicularis), UniProt P21860 20-643 (human entry)).
T4 construct: CHO-S cells transfected with fasHER3
T4 chain: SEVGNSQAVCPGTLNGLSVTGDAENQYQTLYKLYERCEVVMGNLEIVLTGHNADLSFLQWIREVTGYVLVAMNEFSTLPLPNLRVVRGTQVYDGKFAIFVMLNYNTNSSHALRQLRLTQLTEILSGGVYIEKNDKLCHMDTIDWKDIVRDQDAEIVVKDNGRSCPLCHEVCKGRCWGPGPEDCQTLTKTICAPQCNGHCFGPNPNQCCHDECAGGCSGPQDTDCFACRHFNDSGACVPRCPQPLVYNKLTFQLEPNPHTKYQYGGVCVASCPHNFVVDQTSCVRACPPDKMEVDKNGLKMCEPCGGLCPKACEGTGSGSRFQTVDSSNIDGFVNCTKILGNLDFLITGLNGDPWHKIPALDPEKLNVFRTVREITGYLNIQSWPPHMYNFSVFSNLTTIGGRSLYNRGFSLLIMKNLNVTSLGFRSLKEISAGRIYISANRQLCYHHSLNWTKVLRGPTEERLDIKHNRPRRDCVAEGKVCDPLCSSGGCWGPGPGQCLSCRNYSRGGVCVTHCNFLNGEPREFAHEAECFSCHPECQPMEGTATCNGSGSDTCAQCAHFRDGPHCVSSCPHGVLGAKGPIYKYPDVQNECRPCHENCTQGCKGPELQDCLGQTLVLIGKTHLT
The experiment is described as follows: flow cytometry, transfected CHO cells. The protocol:
as §1
(A flow cytometer gives signals particle by particle.)

The target of experiment [5] is T5, His-tagged dog HER3 protein (dHER3, SEQ ID NO: 45) (dog, UniProt P21860 20-642 (human entry)).
T5 construct: not shown: His tag
T5 chain: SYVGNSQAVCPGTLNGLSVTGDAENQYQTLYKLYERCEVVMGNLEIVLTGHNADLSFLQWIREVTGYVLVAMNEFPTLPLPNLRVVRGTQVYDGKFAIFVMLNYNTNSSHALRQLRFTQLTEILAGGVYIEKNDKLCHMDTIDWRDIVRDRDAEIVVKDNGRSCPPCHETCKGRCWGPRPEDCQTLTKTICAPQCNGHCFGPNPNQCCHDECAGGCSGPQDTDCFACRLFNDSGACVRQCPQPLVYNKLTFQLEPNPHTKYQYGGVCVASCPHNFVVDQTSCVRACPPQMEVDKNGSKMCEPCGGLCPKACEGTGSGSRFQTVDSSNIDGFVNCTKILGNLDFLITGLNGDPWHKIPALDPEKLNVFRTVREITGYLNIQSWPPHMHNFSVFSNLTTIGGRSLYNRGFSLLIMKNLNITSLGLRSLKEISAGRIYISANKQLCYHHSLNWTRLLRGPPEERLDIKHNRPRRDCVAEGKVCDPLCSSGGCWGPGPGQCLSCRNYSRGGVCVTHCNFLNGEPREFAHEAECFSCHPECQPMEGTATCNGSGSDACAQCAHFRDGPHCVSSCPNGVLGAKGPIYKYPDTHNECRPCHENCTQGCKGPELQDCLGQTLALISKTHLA
The experiment is described as follows: SPR, Ab captured on Protein A. The procedure:
(§2) Purified anti-HER3 antibodies was captured on the Protein A chip (Series S Sensor Chip Protein A) for the detection. […] For ISO control, an antibody targeting an irrelevant target protein was used. The flow rate was 30 μL/min, the binding and dissociation time were set to 180 s and 400 s, respectively. The chip was regenerated after the last injection of each titration with a glycine solution (pH 2.0) at 30 μL/min for 30 seconds.
(§3) As a person of ordinary skill in the art would understand, the same method with appropriate adjustments for parameters (e.g., antibody concentration) was performed for each tested antibody.

Experiment [6] has as its target T6, His-tagged human HER3 protein (hHER3, ACRO Biosystems Inc., Cat #: ER3-H5223) (human, UniProt P21860 20-643).
T6 construct: Bought protein; also called hHER3-His; not shown: His tag
The experiment is described as follows: SPR, Ab captured on Protein A. The procedure: as §2, §3

The target in experiment [7] is T7, His-tagged monkey HER3 protein (fasHER3, Sino Biological, Inc., Cat #: 90043-K08H) (monkey).
T7 construct: Bought protein
The experiment is described as follows: SPR, Ab captured on Protein A. The procedure:
as §2, §3
For orientation: SPR reads the build-up and loss of mass on a sensor chip optically.

In experiment [8] the target is T8, human HER4 (hHER4, ACRO Biosystems Inc., Cat #: ER4-H5221), recombinant His-tagged (human, UniProt Q15303 26-649).
T8 construct: Bought protein; not shown: His tag
T8 sequence (looked up): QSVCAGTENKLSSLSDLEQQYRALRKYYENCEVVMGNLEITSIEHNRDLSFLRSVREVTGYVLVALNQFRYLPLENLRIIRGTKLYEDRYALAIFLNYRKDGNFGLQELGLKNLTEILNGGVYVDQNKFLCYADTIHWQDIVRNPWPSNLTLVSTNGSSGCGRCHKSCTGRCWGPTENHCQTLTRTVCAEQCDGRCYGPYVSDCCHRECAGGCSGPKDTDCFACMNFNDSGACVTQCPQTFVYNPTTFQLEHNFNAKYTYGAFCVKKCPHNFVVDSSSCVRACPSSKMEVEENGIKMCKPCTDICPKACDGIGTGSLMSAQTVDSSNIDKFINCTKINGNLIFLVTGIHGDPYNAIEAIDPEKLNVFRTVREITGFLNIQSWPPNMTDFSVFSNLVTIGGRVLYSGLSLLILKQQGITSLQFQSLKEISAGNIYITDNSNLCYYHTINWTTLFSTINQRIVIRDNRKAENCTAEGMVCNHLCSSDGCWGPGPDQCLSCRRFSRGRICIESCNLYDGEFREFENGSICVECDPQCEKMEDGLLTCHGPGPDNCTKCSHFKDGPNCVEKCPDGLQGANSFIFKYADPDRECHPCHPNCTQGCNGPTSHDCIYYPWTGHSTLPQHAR
The experiment is described as follows: SPR (Biacore 8K), antibody captured on Protein A chip, His-tagged hHER4 injected at 0-400 nM; response (RU) plotted against concentration [panel F]. The protocol:
The cross binding activities of anti-HER3 antibodies to HER family proteins were determined by surface plasmon resonance (SPR) using Biacore (Biacore, INC, Piscataway N.J.) 8K biosensor equipped with pre-immobilized Protein A sensor chips.
Purified anti-HER3 antibodies were diluted to 2 μg/mL and then injected into the Biacore 8K biosensor at 10 μL/min for about 50 seconds to achieve a desired protein density (e.g., about 200 response units (RU)). […] The association phase lasted for 180 s and the dissociation phase lasted 400 s followed by a regeneration step with Glycine (pH 2.0, 30 μL/min for 30 seconds). For isotype control (ISO), an antibody targeting an irrelevant target protein was used.

T3 sequence (Q61526 20-641): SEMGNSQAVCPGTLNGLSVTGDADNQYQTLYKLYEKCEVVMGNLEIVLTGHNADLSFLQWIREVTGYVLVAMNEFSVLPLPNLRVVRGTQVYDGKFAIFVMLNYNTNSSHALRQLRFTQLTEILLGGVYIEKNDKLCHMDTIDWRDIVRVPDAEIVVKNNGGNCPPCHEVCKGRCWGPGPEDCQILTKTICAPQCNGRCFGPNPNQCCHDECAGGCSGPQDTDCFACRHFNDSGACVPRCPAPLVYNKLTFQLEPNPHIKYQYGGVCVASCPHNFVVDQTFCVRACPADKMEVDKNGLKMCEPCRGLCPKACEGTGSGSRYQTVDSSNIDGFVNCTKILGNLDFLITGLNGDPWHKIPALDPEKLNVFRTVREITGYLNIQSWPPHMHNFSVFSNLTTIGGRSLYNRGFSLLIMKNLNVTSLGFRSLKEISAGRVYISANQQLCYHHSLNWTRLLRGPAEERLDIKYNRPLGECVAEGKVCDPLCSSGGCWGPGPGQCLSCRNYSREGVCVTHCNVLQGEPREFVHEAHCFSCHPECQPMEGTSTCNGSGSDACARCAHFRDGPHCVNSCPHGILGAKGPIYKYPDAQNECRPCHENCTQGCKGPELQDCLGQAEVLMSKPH

B1: anti-HER3 antibody 1D6 (antibody, V domains shown)
VH: EVQLVQSGPGLVKPSETLSLTCTVSGGSISSNNYYWAWIRQPPGKGLEWIGSLYYTGRAYYKSSLKSRVTISVDTSNDQFSLRLTSVTAADTAIYYCARHDCGNTCLNWFDRWGQGTLVTVSS
VL: not shown
notes: common light chain
B1: the “Percentage of Positive Cells” value was 68% in experiment [1], 38.1% in experiment [2], 58.9% in experiment [3] and 62.9% in experiment [4]. For the same molecule, the Kd (usually the concentration at which binding is half-saturated) in experiment [5] worked out at 77.4 nM; in experiment [6] it was 81.4 nM; in experiment [7], 14.4 nM. In addition, the off-rate (koff) (in general, the rate constant with which the complex falls apart) turned out to be 0.0045 s⁻¹ in experiment [5], 0.00769 s⁻¹ in experiment [6] and 0.00098 s⁻¹ in experiment [7]. In addition, the kon (as a rule, the second-order rate constant of association) is 58100 M⁻¹ s⁻¹ in experiment [5], 94500 M⁻¹ s⁻¹ in experiment [6] and 68000 M⁻¹ s⁻¹ in experiment [7].

B2: Patritumab analog (antibody, V domains shown)
VH: QVQLQQWGAGLLKPSETLSLTCAVYGGSFSGYYWSWIRQPPGKGLEWIGEINHSGSTNYNPSLKSRVTISVETSKNQFSLKLSSVTAADTAVYYCARDKWTWYFDLWGRGTLVTVSS
VL: not shown
notes: also called positive control
Consider B2, for which, in experiment [8], the binding result is on record as “no binding (tested: 400 nM)”.

The record behind these values is patent US20260250418A1 (BIOCYTOGEN PHARMACEUTICALS BEIJING, published 2026).
